From the RNAGym collection of RNA variant scans (doi:10.7554/elife.80360) come the findings set out here.

B1: Twister Ribozyme (parent)
chain: AACACUGCCAAUGCCGGUCCCAAGCCCGGAUAAAAGUGGAGGGGGCGG

This series covers variants of B1. The series can be described thus: self-cleavage, relative activity (ratio to wild type); higher = more cleavage; co-transcriptional.
As for A1U G39A, the self-cleavage is 0.0588. As for C25U C46A, the self-cleavage amounted to 0.686. With G13C G45A, the self-cleavage came to 0.209.

With G17U G36C, the self-cleavage was 0.14.

With A4C G13A, the self-cleavage was 0.0606. The figure for A11G C15U is 0.912; for C9G G45A it is 0.444. As to G7U U18C, the self-cleavage came to 0.0819. Regarding A4C G44C, the self-cleavage turned out to be 0.0939. The figure for A2C G13C is 0.0312; for G24A G29A it is 0.155. Take C8G G16A: the self-cleavage came to 0.061. The figure for C25A G44U is 0.107.

As to U18C C20G, the self-cleavage was determined as 0.102. For the variant A22G A30G, the self-cleavage was found to be 0.394.

A40G G41C: the self-cleavage stood at 0.133. As for C8G G45A, the figure is 0.207; as for A30U G47U, 0.954. On to C3U G17A, for which the self-cleavage stood at 0.174. With A4C G16U, the self-cleavage came to 0.107. On to A4C G48U, for which the self-cleavage stood at 0.232. Take U31G A32G: the self-cleavage turned out to be 0.836. As to C5A C27A, the self-cleavage worked out at 0.0839. Consider C20G A22G, for which the self-cleavage worked out at 0.0602. As for A11U A35C, the figure is 0.997. Turning to A11U A35U, the self-cleavage came to 1.12. As for G16U U37G, the self-cleavage was determined as 0.409. Regarding C14G G47C, the self-cleavage came out at 0.0728.

Turning to G17A G48C, the self-cleavage was 0.724. For the variant C14G A22U, the self-cleavage was found to be 0.128. As to A30G U37C, the self-cleavage came to 0.486. Turning to A10U C20A, the self-cleavage came out at 0.168. The figure for U6C A33G is 0.429; for G36A G39U it is 0.12; for C9G A32G it is 0.731. As for A10C C26A, the figure is 0.664; as for A33U G39C, 0.0973. For A4G G38A, the self-cleavage was determined as 0.867. As to U31G G48A, the self-cleavage came to 0.992.

For the variant G28C G43U, the self-cleavage was 0.17. For C8A C26A, the self-cleavage came out at 0.106. With G36A A40G, the self-cleavage turned out to be 0.144. As for C20G A35C, the figure is 0.14. On to A11C C19A, for which the self-cleavage amounted to 0.136. Take G13C G29C: the self-cleavage worked out at 0.477. As for U31C C46A, the figure is 0.733. The figure for C9U G13A is 1.03; for C20A G41U it is 0.0817; for G28A U37C it is 0.391. As for U18C U31G, the self-cleavage was 0.477. Turning to A1U U37A, the self-cleavage worked out at 0.0677.

Consider C5U G13A, for which the self-cleavage is 0.417. Turning to C14U G38U, the self-cleavage turned out to be 0.904. G29U A33G: the self-cleavage is 0.747. As to G24C A30G, the self-cleavage was 0.096. Turning to G13U C27U, the self-cleavage worked out at 0.212. The figure for A10C G17A is 0.391; for A11U C46G it is 0.978. A30C G45U: the self-cleavage was 0.573.

Consider U12G G39C, for which the self-cleavage worked out at 0.137. For A1G G47C, the self-cleavage worked out at 0.385. With U6G A22C, the self-cleavage stood at 0.485. Turning to G42U G44A, the self-cleavage came to 0.524. Regarding G16A G47A, the self-cleavage is 0.702.

Regarding C3U A33G, the self-cleavage came to 0.361. C15G A35C: the self-cleavage turned out to be 0.123. The figure for C21A A40C is 0.0907; for C21U G36A it is 0.0555.

For A11G U18C, the self-cleavage came to 0.382. For C21G G39A, the self-cleavage worked out at 0.0549. With C14G G48C, the self-cleavage was found to be 0.163.

Take C20G G41C: the self-cleavage turned out to be 0.0754.

As to C3G G39C, the self-cleavage came to 0.0914.

As for A10C G48U, the self-cleavage amounted to 1.01. For the variant C8U G24U, the self-cleavage turned out to be 0.177. Turning to G29A G48A, the self-cleavage was found to be 0.874.

As to A2C G7U, the self-cleavage was 0.0484. G16U A30G: the self-cleavage was determined as 0.761. As to A34U G39C, the self-cleavage was determined as 0.138. Turning to A4G C27U, the self-cleavage is 0.74.

Regarding G24C A33G, the self-cleavage amounted to 0.101.

As for C9G G42U, the self-cleavage was 0.119.

For the variant U6C U18A, the self-cleavage worked out at 0.0773. The figure for A35U G38U is 0.942. The figure for C25G A40U is 0.103; for A40U G43A it is 0.132. In the case of C14G G39A, the self-cleavage came out at 0.0534.

For the variant A1C C20A, the self-cleavage is 0.104.

As for G13C G44C, the self-cleavage came out at 0.185. On to G39U G41A, for which the self-cleavage turned out to be 0.0926. As for A11U U12C, the figure is 0.849; as for C3U A4U, 0.12; as for C5G C15A, 0.251. For G38A G42A, the self-cleavage was 0.176. As for C27A C46G, the self-cleavage came out at 0.466. Take A10U A35C: the self-cleavage was 1.16. As for A34U A40C, the self-cleavage came out at 0.137.

Take C5U G7U: the self-cleavage came out at 0.0676.

G13C U37C: the self-cleavage was 0.116.

On to G13U A33G, for which the self-cleavage was 0.68.

As to C20A G47U, the self-cleavage was determined as 0.103. On to G13U A40G, for which the self-cleavage was determined as 0.152. Regarding C14A A32U, the self-cleavage is 0.848. For the variant G24A G28C, the self-cleavage came to 0.0749. Turning to U31G A33C, the self-cleavage stood at 1.03.

With A10U G44A, the self-cleavage worked out at 0.924. For A23U C25A, the self-cleavage is 0.0618. With A2G U18A, the self-cleavage is 0.123. As for U6C U37G, the self-cleavage is 0.181. G42A G43A: the self-cleavage is 0.131.

For A4G A10C, the self-cleavage was found to be 0.762. As for U6G C14G, the figure is 0.0983; as for U6G C14A, 0.313; as for C19A G45A, 0.196. Turning to A2G G36A, the self-cleavage amounted to 0.118. With C5A G47U, the self-cleavage stood at 0.486.

For the variant C20A A22U, the self-cleavage worked out at 0.0761.

For C3A C26U, the self-cleavage is 0.132. Take A4C A10U: the self-cleavage is 0.203. For the variant G29C A33C, the self-cleavage came out at 0.545. With G16U G48A, the self-cleavage stood at 0.898.

Regarding C5G C46G, the self-cleavage is 0.915. With A22U A35C, the self-cleavage stood at 0.778. Consider G16C G29A, for which the self-cleavage was 0.222. For U6A A22G, the self-cleavage came to 0.0598. For U6C C15G, the self-cleavage stood at 0.1. Regarding C25U A33G, the self-cleavage was 0.853. On to C19U G44A, for which the self-cleavage was determined as 1.03. For C9U C21A, the self-cleavage was 0.0683. Consider C3G C46U, for which the self-cleavage is 0.583.

On to C8G G28C, for which the self-cleavage stood at 0.083.

Regarding A4G C46A, the self-cleavage was determined as 0.785. For the variant C5G G48A, the self-cleavage came out at 0.67. As to C5A G29A, the self-cleavage was 0.362.

On to A2U G47A, for which the self-cleavage amounted to 0.292. Take A2U C25G: the self-cleavage amounted to 0.0728. On to A10C C46U, for which the self-cleavage was found to be 0.839. As to C25A G45U, the self-cleavage is 0.0929. Regarding C14U C26A, the self-cleavage was determined as 0.497. In the case of A2C G41A, the self-cleavage came to 0.0488.

Regarding A2C G28A, the self-cleavage stood at 0.0374. As for U6G C21G, the figure is 0.116.

Consider G17A A35G, for which the self-cleavage was 0.262. In the case of G41U G45C, the self-cleavage worked out at 0.177.

As to G42C G44U, the self-cleavage stood at 0.162.

Take A10U C27A: the self-cleavage turned out to be 0.645. The figure for C9U C46U is 0.729; for C27G A40C it is 0.119. With A4C U37A, the self-cleavage is 0.766. As for G29U A40G, the self-cleavage turned out to be 0.167.

With A34G G38A, the self-cleavage turned out to be 0.629. As for A34U U37A, the figure is 0.368. The figure for A30G G45C is 0.571; for C3G A40U it is 0.113. Take A30G G38C: the self-cleavage is 0.868. For the variant C14U A40U, the self-cleavage is 0.191. The figure for A4G C21G is 0.0683; for C5A C8U it is 0.335; for A11C G44A it is 0.955.

With C3A C20G, the self-cleavage is 0.0637. A35U G45C: the self-cleavage is 0.723. With G17C C27A, the self-cleavage was determined as 0.0647. G24A G47A: the self-cleavage amounted to 0.096. With G17C G36C, the self-cleavage was 0.0812. The figure for C9A A11G is 0.735; for A23U A35G it is 0.17. As for G13A A35U, the figure is 0.978.
